Target: Dyn1_(387kD) (S. cerevisiae) (UniProt P36022)
Assay: single-molecule GFP fluorescence intensity; GFP-tagged motors on surface-immobilised Cy5 MTs, with ATP or apyrase, 5 min; intensities of GFP spots compared with GST-Dyn1 331kD

A stoichiometry N of 2 was found for Dyn1_(387kD), P36022 732-4092 in this work.

Source: publication PMC3762337
